We go through 16 molecules from PMC6212638, “In silico identification and biochemical characterization of the human dicarboxylate clamp TPR protein interaction network” (FEBS Open Bio, 2018).

Assay [1] addresses T1, FKBP51 (Homo sapiens, UniProt Q13451).
T1 sequence (Q13451 1-457): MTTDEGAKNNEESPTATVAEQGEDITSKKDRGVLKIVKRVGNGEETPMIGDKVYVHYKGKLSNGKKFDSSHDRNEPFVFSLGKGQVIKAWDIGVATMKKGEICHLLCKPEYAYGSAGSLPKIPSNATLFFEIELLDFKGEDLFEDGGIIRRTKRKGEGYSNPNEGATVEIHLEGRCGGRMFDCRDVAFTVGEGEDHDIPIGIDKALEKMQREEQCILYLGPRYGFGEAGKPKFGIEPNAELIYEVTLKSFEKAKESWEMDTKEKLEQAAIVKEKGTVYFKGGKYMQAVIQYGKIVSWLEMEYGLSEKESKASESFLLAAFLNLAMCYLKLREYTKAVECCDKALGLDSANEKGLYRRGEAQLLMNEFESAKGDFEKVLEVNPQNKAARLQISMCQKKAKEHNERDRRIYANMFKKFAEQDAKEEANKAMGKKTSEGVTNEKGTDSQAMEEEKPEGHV
The assay can be described thus: Dot-blot competition assay: HRP-conjugated peptide vs unlabeled peptide on immobilized FKBP51.
Protocol: (§1) Full‐length cDNA clones for respective proteins were obtained from IMAGE consortium (SourceBioScience, Nottingham, UK) and PCR amplified with forward and reverse primers (Table 1) containing overhangs with appropriate restriction sites and cloned into pGEX6 vectors (GE Healthcare, Uppsala, Sweden). Inserts were sequence verified, and the plasmids were transformed into BL21 Escherichia coli strain. Glutathione‐S‐transferase (GST) fusion proteins were purified from 1 L overnight culture after 2 h of induction with 1 mM IPTG. Cells were pelleted, resuspended in 1× PBS and sonicated 3 × 20 s on ice. EDTA and protease inhibitor cocktail were added to prevent proteolysis. The suspension was centrifuged for 30 min at 50 000 g to remove cell debris, and supernatant was loaded onto a 1 mL GSTrap™ 4B column (GE Healthcare). After column washing with 30 mL PBS, GST fusion proteins were eluted with 2.5 mL 10 mM glutathione in PBS. Eluate was passed through a PD‐10 column (GE Healthcare) to remove free glutathione. To prepare GST‐tag‐free proteins, we performed overnight cleavage at 4 °C with PreScission protease (GE Healthcare) followed by passage through a GSTrap column to remove free GST protein. Average yield from 1 L starting culture was 1–5 mg of purified proteins. Protein‐containing fractions were collected, checked with SDS/PAGE and kept at −20 °C.
(§2) Peptides were dissolved in HEPES‐KOH buffer pH 7.2 at concentration of 1 mg·mL^−1 and incubated with equimolar amounts of activated horseradish peroxidase (HRP) (Lightning‐link® HRP labeling kit cat. 701‐004, from Innova Biosciences) for 5 min. Reaction was quenched with 0.1 M Tris/HCl, pH 7.5 for 10 min and the products were passed through PD‐10 columns (GE Healthcare). Dot‐blot experiments were performed using GST‐tag‐free proteins applied to the nitrocellulose membrane. After blocking of membrane with 3% BSA in TBS‐T buffer for 1 h and subsequent wash with TBS‐T, HRP‐conjugated peptides (1 × 500 times dilution) were applied and incubated for 1 h. After subsequent washing (3 × 10 min, TBS‐T), membrane was dried and signals were quantified using a digital Fujifilm LAS3000 imager and LAS3000 software. In competition experiments, increasing concentrations of unlabeled peptides were co‐incubated with peptide–HRP conjugates.
(§3) Each peptide was separately coupled to HRP.

Assay [2] addresses T2, AIP (Homo sapiens, UniProt O00170).
T2 sequence (O00170 1-330): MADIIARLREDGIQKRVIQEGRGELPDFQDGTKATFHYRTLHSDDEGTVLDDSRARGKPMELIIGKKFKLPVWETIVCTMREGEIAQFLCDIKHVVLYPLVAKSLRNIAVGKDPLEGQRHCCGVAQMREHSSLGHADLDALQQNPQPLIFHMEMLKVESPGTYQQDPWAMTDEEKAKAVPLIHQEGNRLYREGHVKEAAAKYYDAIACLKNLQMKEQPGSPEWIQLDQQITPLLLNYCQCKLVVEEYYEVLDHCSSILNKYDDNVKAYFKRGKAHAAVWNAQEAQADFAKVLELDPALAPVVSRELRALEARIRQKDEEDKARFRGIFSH
The assay can be described thus: Dot-blot competition assay: HRP-conjugated peptide vs unlabeled peptide on nitrocellulose-immobilized AIP.
Protocol: as §1, §2, §3

For a further assay, the system named is Tom70. Kind of assay: Dot-blot assay of Tom70 with HRP-conjugated Hsp90 and Tom20 peptides in presence of unconjugated peptides. To be noted: 20 μM unconjugated peptide. Type of assay: binding, human. Here is the method: In subsequent experiments, non‐fluorescent peptides were used. […] Cell impermeable Hsp90 peptide served as a treatment control.
Figure 6 In vitro and in situ analysis of interactions of 10‐amino‐acid peptides corresponding to C termini of Hsp90 and Tom20 with Tom70. (A) Dot‐blot assay of interactions between Tom70 and HRP‐conjugated 10‐amino‐acid peptides corresponding to C termini of Hsp90 and Tom20 in the presence of 20 μM of unconjugated peptides. (B) Fluorescence imaging of HEK293 cells in the presence of 20 μM of fluorescein‐labeled Hsp90, R9–Hsp90, Tom20 and R9–Tom20 peptides. (C) Inhibition of Tom20–Tom70 and Hsp90–Tom70 interactions with R9–Hsp90 and R9–Tom20 in HEK293 cells measured by PLA. n = 3. Graphs were created and SD values were calculated using PRISM, version 7.02. *P‐value < 0.05 compared to control; comparisons are based on one‐way ANOVA. (D) Inhibition of Tom20–Tom70 and Hsp90–Tom70 interactions with R9–Hsp90 and R9–Tom20 in HEK293 cells measured by mammalian two‐hybrid assay. n = 3. Graphs were created and SD values were calculated using PRISM, version 7.02. *P‐value < 0.05 compared to control; comparisons are based on one‐way ANOVA.

In assay [3] the target is T3, FKBP51 (human, UniProt Q13451 1-457).
T3 construct: GST-tag-free protein spotted on nitrocellulose; also called immobilized FKBP51; source: E. coli BL21, purified as GST fusion (GSTrap), GST removed with PreScission protease
T3 sequence (looked up): T1 sequence (Q13451 1-457)
Kind of assay: far-Western, overlay or dot blot; GST-tag-free FKBP51 or AIP on nitrocellulose, blocked with 3% BSA in TBS-T, probed 1 h with HRP-conjugated peptide, alone or with increasing concentrations of unlabeled peptide; luminescence quantified; IC50 estimated; n = 3. To be noted: both partners purified.

Assay [4] has as its target T4, AIP (human, UniProt O00170 1-330).
T4 construct: GST-tag-free protein spotted on nitrocellulose; also called nitrocellulose-immobilized AIP; source: E. coli BL21, purified as GST fusion (GSTrap), GST removed with PreScission protease
T4 sequence (looked up): T2 sequence (O00170 1-330)
Described as above. To be noted: both partners purified.

The target in the next assay is T5, Tom70(94–608) (UniProt O94826 94-608).
T5 construct: mitochondrial import receptor Tom70, residues 94-608 as the primers are named; the reverse primer codes for ...KPPTL-stop; source: dot blots used GST-tag-free proteins
T5 sequence (looked up): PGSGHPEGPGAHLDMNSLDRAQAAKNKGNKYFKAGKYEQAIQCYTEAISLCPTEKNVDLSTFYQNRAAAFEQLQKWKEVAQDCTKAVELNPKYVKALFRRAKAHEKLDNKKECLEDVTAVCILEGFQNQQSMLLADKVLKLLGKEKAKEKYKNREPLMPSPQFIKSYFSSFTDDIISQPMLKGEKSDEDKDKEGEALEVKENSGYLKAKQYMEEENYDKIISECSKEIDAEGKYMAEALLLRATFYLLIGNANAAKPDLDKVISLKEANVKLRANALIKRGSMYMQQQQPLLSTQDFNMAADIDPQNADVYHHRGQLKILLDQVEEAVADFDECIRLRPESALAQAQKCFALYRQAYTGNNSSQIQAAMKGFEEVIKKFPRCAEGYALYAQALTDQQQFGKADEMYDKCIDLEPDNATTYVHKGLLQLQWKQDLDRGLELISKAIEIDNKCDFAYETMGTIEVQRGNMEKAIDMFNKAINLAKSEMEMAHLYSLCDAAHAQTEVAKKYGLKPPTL
The assay can be described thus: far-Western, overlay or dot blot; Tom70 on nitrocellulose, probed with HRP-conjugated Hsp90 or Tom20 peptide in the presence of 20 μM of unconjugated peptides. As to conditions: both partners purified.

Ends that are not written are not given here. Peptide text beside a SMILES is read from it.

Take `CC[C@H](C)[C@H](NC(=O)[C@@H](NC(=O)[C@@H]1CCCN1C(=O)CNC(=O)[C@H](CO)NC(=O)CN)[C@@H](C)O)C(=O)N[C@@H](CCC(=O)O)C(=O)N[C@@H](CCC(=O)O)C(=O)N[C@H](C(=O)N[C@@H](CC(=O)O)C(=O)O)C(C)C` [Hsp70.1]: the figures for the IC50 on FKBP51 [1] and at AIP [2] were 27.6 ± 2.85 µM and 10.6 ± 1 µM, respectively.

For `CSCC[C@H](NC(=O)[C@H](CC(N)=O)NC(=O)[C@H](CO)NC(=O)[C@H](Cc1ccc(O)cc1)NC(=O)[C@@H](NC(=O)[C@@H]1CCCN1)[C@@H](C)O)C(=O)N[C@@H](CCC(=O)O)C(=O)N[C@@H](CCC(=O)O)C(=O)N[C@H](C(=O)N[C@@H](CC(=O)O)C(=O)O)C(C)C` [Usp19] (H-PTYSNMEEVD-OH), the IC50 at FKBP51 [1] turned out to be 19.7 ± 2.55 µM; at AIP [2] it was 18.8 ± 2.78 µM.

For `CSCC[C@H](NC(=O)[C@H](CC(N)=O)NC(=O)[C@@H](NC(=O)[C@H](CO)NC(=O)[C@H](CC(N)=O)NC(=O)[C@H](CCCCN)NC(=O)[C@@H](N)CCC(=O)O)C(C)C)C(=O)N[C@@H](CC(=O)O)C(=O)N[C@@H](CC(C)C)C(=O)N[C@@H](CC(=O)O)C(=O)O` [Hsp105] (H-EKNSVNMDLD-OH), the concentration for half-maximal inhibition (IC50) was 42.8 ± 4.16 µM at FKBP51 [1] and 8.64 ± 0.8 µM on AIP [2].

Turning to `CC(C)C[C@H](NC(=O)[C@H](CC(=O)O)NC(=O)[C@H](Cc1ccc(O)cc1)NC(=O)[C@H](CC(C)C)NC(=O)[C@H](CC(C)C)NC(=O)[C@H](CO)NC(=O)[C@H](CC(N)=O)NC(=O)[C@H](CCC(N)=O)NC(=O)[C@@H](N)Cc1ccccc1)C(=O)N[C@@H](CC(=O)O)C(=O)O` [DNAAF2] (H-FQNSLLYDLD-OH), the IC50 came to 25.6 ± 1.54 µM on FKBP51 [1] and 8.47 ± 0.43 µM on AIP [2].

Take `CC(C)C[C@H](NC(=O)[C@H](CO)NC(=O)[C@H](CCC(N)=O)NC(=O)[C@@H]1CCCN1C(=O)[C@H](CCC(=O)O)NC(=O)[C@H](C)N)C(=O)N[C@@H](CC(=O)O)C(=O)NCC(=O)N[C@H](C(=O)N[C@@H](CC(=O)O)C(=O)O)C(C)C` [NADSYN1] (H-AEPQSLDGVD-OH): the IC50 on FKBP51 [1] amounted to 28.2 ± 1.96 µM; at AIP [2], 9.74 ± 0.72 µM.

As for `CSCC[C@H](NC(=O)[C@H](CCCCN)NC(=O)[C@H](CCC(=O)O)NC(=O)[C@H](CC(=O)O)NC(=O)[C@H](CC(=O)O)NC(=O)[C@@H](N)CO)C(=O)N1CCC[C@H]1C(=O)N[C@@H](CC(=O)O)C(=O)N[C@@H](CC(C)C)C(=O)N[C@@H](CCC(=O)O)C(=O)O` [p23] (H-SDDEKMPDLE-OH), the figures for the 50% inhibitory concentration (IC50) on FKBP51 [1] and on AIP [2] were 189 ± 12.9 µM and 55 ± 4.51 µM, respectively.

With `CC(C)C[C@H](NC(=O)[C@H](CO)NC(=O)[C@H](CCC(N)=O)NC(=O)[C@H](C)N)C(=O)N[C@@H](C)C(=O)N[C@@H](CCC(=O)O)C(=O)N[C@@H](CC(=O)O)C(=O)N[C@@H](CC(=O)O)C(=O)N[C@H](C(=O)N[C@@H](CCC(=O)O)C(=O)O)C(C)C` [Tom20] (H-AQSLAEDDVE-OH), the “competition with HRP-conjugated Hsp90 peptide for Tom70 binding” value in the assay on Tom70 was “unable to disrupt”. Also, the half-maximal inhibitory concentration (IC50) on FKBP51 [1] was determined as 132 ± 12.6 µM; at AIP [2], 35.3 ± 3.2 µM.

B1: Hsp105 peptide (peptide)
peptide: EKNSVNMDLD
notes: the 10 C-terminal residues of Hsp105; source: synthetic peptide (Peptide 2.0, Inc.), > 95% purity
As for B1, the IC50 is 40 µM with FKBP51 [3] and 6 µM with AIP [4].

B2: HRP-conjugated Hsp90β peptide (peptide)
peptide: EDASRMEEVD
modifications: also: HRP-conjugated
notes: the 10 C-terminal residues of Hsp90β; also called HRP–Hsp90; Hsp90 peptide conjugated to HRP
Regarding B2, in the assay with Tom70(94–608), the binding result is given as “binds”.

B3: HRP-conjugated Tom20 peptide (peptide)
peptide: AQSLAEDDVE
modifications: also: HRP-conjugated
notes: the 10 C-terminal residues of Tom20
Take B3: the binding result in the assay with Tom70(94–608) is “binds”.

B4: Tom20 peptide (peptide)
peptide: AQSLAEDDVE
notes: the 10 C-terminal residues of Tom20; also called Tom20 label-free peptide; unlabeled Tom20 peptide; source: synthetic peptide (Peptide 2.0, Inc.), > 95% purity
As for B4, the IC50 with FKBP51 [3] is 183 µM; with AIP [4], 62 µM.

B5: DNAAF2 peptide (peptide)
peptide: FQNSLLYDLD
notes: the 10 C-terminal residues of DNAAF2; source: synthetic peptide (Peptide 2.0, Inc.), > 95% purity
In the case of B5, the IC50 is 25 µM with FKBP51 [3] and 8 µM with AIP [4].

B6: p23 peptide (peptide)
peptide: SDDEKMPDLE
notes: the 10 C-terminal residues of p23 / PTGES3; also called p23 C-terminal peptide; source: synthetic peptide (Peptide 2.0, Inc.), > 95% purity
On to B6, for which the IC50 in the assay with FKBP51 [3] was 291 µM; with AIP [4], 47 µM.

B7: Usp19 peptide (peptide)
peptide: PTYSNMEEVD
notes: source: synthetic peptide (Peptide 2.0, Inc.), > 95% purity
For B7, the IC50 was 19 µM in the assay with FKBP51 [3] and 9 µM in the assay with AIP [4].

B8: Hsp90β peptide (peptide)
peptide: EDASRMEEVD
notes: the 10 C-terminal residues of Hsp90β; also called Hsp90 peptide; Hsp90β-derived peptide; source: synthetic peptide (Peptide 2.0, Inc.), > 95% purity
Turning to B8, in the assay with Tom70(94–608), the binding result is “binds”. Moreover, the results for the IC50 in the assay with FKBP51 [3] and with AIP [4] were 16 µM and 18 µM, respectively.

B9: NADSYN1 peptide (peptide)
peptide: AEPQSLDGVD
notes: the 10 C-terminal residues of NADSYN1; source: synthetic peptide (Peptide 2.0, Inc.), > 95% purity
For the molecule B9, the IC50 is 28 µM in the assay with FKBP51 [3] and 18 µM with AIP [4].
